In the nanobody polyreactivity screen of Harvey et al. (2022):

Assay: yeast display, Sf9 membrane polyspecificity reagent, FACS + sequencing; frameworks hold sequencing errors
Summary of the method: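 Galactose-induced (36–48 hours) yeast carrying a synthetic nanobody display library were exposed to 10% biotinylated, detergent-solubilized Sf9 membrane reagent at 4 °C for 1 hour. FACS followed streptavidin microbead enrichment, using low and high (top ~1%) gates for expression (anti-HA) and reagent binding (streptavidin). Colony PCR, MiSeq 2 × 250 sequencing and CDR-length filtering followed. Labels for polyreactivity reflect the gate of origin.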

| Sequence | polyreactivity (PSR sort gate) |
| --- | --- |
| QVQLVESGGGLVQAGGSLRLSCAASGRTFDRNAMGWYRQAPGKERELVAAITSRGGRTYYADSVKGRFTISRDNAKNTVYLQMNSLKPEDTAVYYCAADLFSSRVRSNFDYWGQGTQVTVSS | high polyreactivity |
| QVQLVESGGGLVQAGGSLRLSCAASGRTFDSNTMGWYRQAPGKERELVAAITGSGGRTYYADSVKGRFTISRDNAKNSVYLQMNSLKPEDTAVYYCAARPYFYERSAGYYWGQGTQVTVSS | high polyreactivity |
| QVQLVESGGGLVQAGGSLRLSCAASGRTFDSYVMGWYRQAPGKERELVAAISSRGGTYYADSVKGRFTISRDNAKNTVYLQMNSLKPEDTAVYYCAARIYRKYYRYDYWGQGTQVTVSS | high polyreactivity |
| QVQLVESGGGLVQAGGSLRLSCAASGRTFDTYAMGWYRQAPWKERELVAAITRRTYYADSVKGRFTISRDNAKNSVYLQMNSLKPEDTAVYYCAVRFLRKWTSSRHYGYWGQGTQVTVSS | high polyreactivity |
| QVQLVESGGGLVQAGGSLRLSCAASGRTFDVYAMGWYRPAPGKERELVATIRSDGSTTYADSVKGRFTISRDNAKNTDYLQLNSLKPEDTAVYYCAAERVGVFFRYDYWGQGTQVTVSS | low polyreactivity |
| QVQLVESGGGLVQAGGSLRLSCAASGRTFDVYAMGWYRQAPGKERELVAAISWSGGGTYYADSVKGRFTISRDNAKNTVYLQLTSLNPADTAVYSCAAALTFALDPNRYTYSDYYYWGQGTQVTVSS | low polyreactivity |
| QVQLVESGGGLVQAGGSLRLSCAASGRTFDYKAMGWYRQAPGKERELVAAIDVNGGDTYYADSVKGRFTISRDNAKNTVYLQMNSLKPEDTAVYYCAAERDARTDDYWGQGTQVTVSS | low polyreactivity |
| QVQLVESGGGLVQAGGSLRLSCAASGRTFDYNTMGWYRQAPGKVRELVAAISASGGSTYYADSVKGRFTISRDNAKNTVDLPMNSLKPEDTAVYYCNTYAGVEYYHWGQGTQVTVSS | low polyreactivity |
| QVQLVESGGGLVQAGGSLRLSCAASGRTFDYYAMGWYRQAPGKERELVAAISSSGGSTYYADSVKGRFTISRDNAKNTVYLQMNSLKPEDTEVYYCNAYAYRFNHIHHIYTTDGEYWGQGTQVTVSS | high polyreactivity |
| QVQLVESGGGLVQAGGSLRLSCAASGRTFDYYAMGWYRQAPGKERELVAAITSGGSTYYADSVKGRFTISRDNAKNTDYLQMNSLKPEDTAVYYCAKSWALTRGYGSRYYVYRYDYWGQGTQVTVSS | low polyreactivity |
| QVQLVESGGGLVQAGGSLRLSCAASGRTFEGNALGWYRQAPGKERELVAAITSGGRTNYADSVKGRFTISRDNAKNTVYLQMNSLKPEDTAVYYCAVETRDRSTYFPGQAYDYWGQGTQVTVSS | low polyreactivity |
| QVQLVESGGGLVQAGGSLRLSCAASGRTFEGYAMGWYRQAPGKERELVAAISNSGGSTYYADSVKGRFTIARDNAKNTVYLQMNSLKPEDTAVYYCAALSRIPRYGYWGQGTQVTVSA | high polyreactivity |
| QVQLVESGGGLVQAGGSLRLSCAASGRTFEHYAMGWYRQAPGKERELVAAINSSDGGTYYADSVKGRFTISRDNAKNTVYLQMNSLKPEDTAVYYCAAAEFGSVPGYEMDYWGQGTQVTVSS | low polyreactivity |
| QVQLVESGGGLVQAGGSLRLSCAASGRTFENYAMGWYRQAPGKERELVAAISKSGGSTYYADSVKGRFTISRDNAKNTVYLQMNSLKPEDTAVYYCNARPGQSGARFGYWGQGTQVTVSS | high polyreactivity |
| QVQLVESGGGLVQAGGSLRLSCAASGRTFENYVMGWYRQAPGKERELVPAITVSGGSTYYADSVKGRFTISRDIAKNTVYLQMNSLKPEDTAVYYCAADPNVLFSQKYYEPNDYWGQGTQVTVSS | low polyreactivity |
| QVQLVESGGGLVQAGGSLRLSCAASGRTFERNALGWYRQAPGKEREFVAAITEIGGSTYYADSVKGRFTISRDNAMNTVYLQMNSLKPEDTAVYYCAKDGTYSPYDYWGQGTQVTVSS | low polyreactivity |
| QVQLVESGGGLVQAGGSLRLSCAASGRTFESYGMGWYRQAPGKERELVAAITWSGGDTYYADSVKGRFTISRDNAKNTVYLQMNSLKPEDTAVYYCAKEQGLYSVSPYDYWGQGTQVTVSS | low polyreactivity |
| QVQLVESGGGLVQAGGSLRLSCAASGRTFETNAMGWYRQAPGKERELVASINWSGGSTYYADSVKGRFTISRDNAKNTVYLQMNSLKPEDTAVFYCAADHSYWDWWSYYYWGQGTQVTVSS | low polyreactivity |
| QVQLVESGGGLVQAGGSLRLSCAASGRTFETNAMGWYRQAPGKERELVASINWSGGSTYYADSVKGRFTISRDNAKNTVYLQMNSLKPEDTAVYYCAAEHSYWDWWSYYYWGQGTLVTVSS | low polyreactivity |
| QVQLVESGGGLVQAGGSLRLSCAASGRTFEYNAMGWYRQAPGKEREFVAAITYSGGGTYYADSVKGRFTISRDNAKNTVYLQMNSLKPEDTAVYYCARERTRVHKHYYWGQGTQVTVSS | low polyreactivity |
| QVQLVESGGGLVQAGGSLRLSCAASGRTFEYYAMGWYRPAPGKERELVAAITYSGDSTYYADSVKGRFTISRDNAKNTVYLQMNSLKPEDTAVYYCAADWSSLKDDYWGQGTQVTVSS | low polyreactivity |
| QVQLVESGGGLVQAGGSLRLSCAASGRTFEYYAMGWYRQAPGKEREFVAAISRRGDSTYYADSVKGRFTISRDNAKNTVYLQMNSLKPEDTAVYYCAAKSYSARTKYYYWGQGTQVTVSS | high polyreactivity |

| Sequence | polyreactivity (PSR sort gate) |
| --- | --- |
| QVQLVESGGGLVQAGGSLRLSCAASGRTFEYYAMGWYRQAPGKERELVASISFGGGSTYADSVKGRFTISRDNAKNTVYLQMNSLKPEDTAVYYCAATGGWYKHWFDYWGQGTQVTVSS | low polyreactivity |
| QVQLVESGGGLVQAGGSLRLSCAASGRTFFANAMGWYRQAPGKERELVAAITSNTGTTYYADSVKGRFTISRDNAKNTVYLQMNSLKPEDTAVYYCAARYTFRYEYWGQGTQVTVSS | high polyreactivity |
| QVQLVESGGGLVQAGGSLRLSCAASGRTFFDYAMGWYRQAPGKERELVATIRGGGSTNYADSVKGRFTISRDNAKNTVYLQMNSLKPEDTAVYYCAVRRRWYFPQYRSGRSLDYWGQGTQVTVSS | high polyreactivity |
| QVQLVESGGGLVQAGGSLRLSCAASGRTFFENAMGWYRQAPGKEREFVAAISYNGGSTYYADSVKGRFTISRDNAKNTVYLQMNSLKPEDTAVYYCAAEADGLRYDDNYWGQCTQVTVSS | low polyreactivity |
| QVQLVESGGGLVQAGGSLRLSCAASGRTFFEYAMGWYRQAPGKERELVAIITNGATTNYADSVKGRFTISRDNAKNTVYLQMNSLKPEDTAVYYCAVAKWQPRRRKYYYWGQGTQVTVSS | high polyreactivity |
| QVQLVESGGGLVQAGGSLRLSCAASGRTFFGYAMGWYRQAPGKERELVAAINWGGASTYYADSVKGRFTISRDNAKNTVYLQMNSLKPEDTAVYYCAADSVPSRPTYGRYDYWGQGTQVTVSS | low polyreactivity |
| QVQLVESGGGLVQAGGSLRLSCAASGRTFFKYAMGWYRQAPGKERELVAAIRSGTSTYYADSVKGRFTISRDNAKNTVYLHMNSLKPEDTAVYYCAADWHSKIGKGYDYWGQGTQVTVSS | high polyreactivity |
| QVQLVESGGGLVQAGGSLRLSCAASGRTFFKYAMGWYRQAPGKERELVAAISSVGSTYYADSVKGRFTISRDNAKNSVYLQMNSLKPEDTAVYYCAARKNRAYGYWGQGTQVTVSS | high polyreactivity |
| QVQLVESGGGLVQAGGSLRLSCAASGRTFFPNAMGWYRPAPGKERELVAAITWRGGSTYYADSVKGRFTISRDNAKNTVYLQMNSLKPEDTAVYYCAARDNPRWPRYYRGRTYDYWGQGTQVTVSS | high polyreactivity |
| QVQLVESGGGLVQAGGSLRLSCAASGRTFFPNEMGWYRQAPGKERELVAAITSAGSTNYADSVKGRFTISRDNEKTTVYLQMNSLKPEETAVYYCAAVYPPIHQRYIVDYWGQGTQETVSS | low polyreactivity |
| QVQLVESGGGLVQAGGSLRLSCAASGRTFFPYAMGWYRQAPGKEREFVAAITKSDYSTYYADSVKGRFTISRDNAKNTVYLQKNSLKPEDNAVYYCNAGDTQIRFYYWGQGTQVTVSS | low polyreactivity |
| QVQLVESGGGLVQAGGSLRLSCAASGRTFFPYAMGWYRQAPGKERELVAAISLDDDTTYYADSVKGRFTISRDNAKNTVYLQMNSLKPEDTAVYYCAARGTRVRSLYDYWGQGTQVTVSS | high polyreactivity |
| QVQLVESGGGLVQAGGSLRLSCAASGRTFFPYAMGWYRQAPGKERELVAAITGSGSSTNYADSVKGRFTISRDNAKNTVYLQMTRLKPVDTAVYYCAKPYYRLEDYWGQGTQVTVSS | low polyreactivity |
| QVQLVESGGGLVQAGGSLRLSCAASGRTFFPYAMGWYRQAPGKERELVARISRTTGRTYYADSVKGRFTISRDNAKNTVFLQMNSLKPEDTAVYYCNAEGFRASGGYVRFEYWGQGTQVTVSS | high polyreactivity |
| QVQLVESGGGLVQAGGSLRLSCAASGRTFFPYPRGCYRQAPGTDREFFAAITWSGGSTTYADSVKGRFTISRDNAKNTVYLQMNSLKPEDTAVYYCNAGRRRSYSYDYWGQGTQVTVSS | low polyreactivity |
| QVQLVESGGGLVQAGGSLRLSCAASGRTFFRYAMGWYRPAPGKERELVAAITRSGGSTYYADSVKGRFTISRDNAKNTVYLLMNSLKPEDTAVYYCAAPREAYSRGYDSWGQGTQVTVSS | high polyreactivity |
| QVQLVESGGGLVQAGGSLRLSCAASGRTFFSNAMGWYRQAPGKERELVAAISNGDNTYFADSVKGRFTISRDNAKNTVYLQMNSLKPEDTAVYYCNTVRRSYWSWSTENSDYWGQGTQVTVSS | low polyreactivity |
| QVQLVESGGGLVQAGGSLRLSCAASGRTFFTYAMGWYRQAPGKERELVAAITGSGGSTSYADSVKGRFTISRDNAKNTVYLQMNSLKPEDTAVYYCAADWQELEYDYWGQGTQVNVSS | low polyreactivity |
| QVQLVESGGGLVQAGGSLRLSCAASGRTFFVNAMGGYRQAPGKERELVAAITWSGGSTSYADSVKGRFTISRDKAKNNVSLQLNSLKPEDTAVYYCAAEYYSYSHSYYYYGYEYWGQGTQVNVSS | high polyreactivity |
| QVQLVESGGGLVQAGGSLRLSCAASGRTFFYNAMGWYRQAPGKERELVAAIDWSGDSTYYADSVKGRFTISRDNAKNTVYLQMNSLKPEDTAVYYCAADGGQVDDSATRLYYWGQGTQVTVSS | high polyreactivity |
| QVQLVESGGGLVQAGGSLRLSCAASGRTFFYNTMGWYRQAPGKERELVAAISYRGGRTYYADSVKGRFTISRDNAKNTVYLQMNSLKPEDTAVYYCNAYSYGHYYWGQGTQVTVSS | high polyreactivity |
